A short description of the series: soluble on expression in E. coli; label from the status in PepcDB or PDB records.
Regarding “MFEKGYVDENYIRVPKDRLFSFIVRVLTKLGVPEEDAKIVADNLVMADLRGVESHGVQRLKRYVDGIISGGVNLHPKIRVIREGPSYALIDGDEGLGQVVGYRSMKLAIKKAKDTGIGIVIARNSNHYGIAGYYALMAAEEGMIGISMTNSRPLVAPTGGIERILGTNPIALAAPTKDKPFLLDMATSVVPIGKLEVYRRKGKDIPEGWAINREGNITTKVEEVFNGGALLPLGGFGELLGGHKGYGLSLMVDILSGILSGGTWSKYVKNTSEKGSNVCHFFMVIDIEHFIPLEEFKEKISQMIEEIKSSRKHPEFERIWIHGEKGFLTMETRLKLGIPIYRKVLEELNEIAKRVGVEGL”, the “soluble on expression in E. coli” value was “soluble”.

“MAHHHHHHMESPRQEPLPQQPSELNTNAAAVLSTTTTESYVYTCRMCRHVLFMHHEILPHYPEPVGSGNKGFKYRGGGHASSQQQQGLHAAQEGGDVCTSYFLDPDISPWVAEESREVHQVSGGLDVMPDTIYCPNRKCNAKIGTQSWVGSQCSCGAWVTPAFKIHSRVVDKMPVAQ”: the “soluble on expression in E. coli” value is “not soluble”.

Turning to “MGSDKIHHHHHHMDSWNMKGSKMVDVNEITKYLPGFNCGACGYKRCDLFAEALLNKDVKLEDCPFLLRERFKENYEKLKEILKIKGKIKKEEKYIGVIDGYEADFLLKPLPNECSCRETLLIMDKKELKVGDYIRYRPLGCPIPHFAKIIDEYHGFYIIHVVGPSHRITGEKIEYKDVGIAIVVAFEGIVEGKVPEVGKTVKFIPKHCMMQKVHSGVVVQVEGKRVYIEGIDLKVF”, the “soluble on expression in E. coli” value is recorded as “not soluble”.

Consider “MAHHHHHHMFPASGSGPGVAGSALKGFKGMHHKPPNYPYPYVVGVDGAGEVESVGRKVTGLKAGDRVMFHSSLTNAHGGSLCEYAVMEESVAVPIPADGARPFSYEEAAAIPCATWTAYVALFDKLRIEPGRSIFVDGASGAVGSCAVQLAHHMGLYVFASCSPSNADYVRSIGADQVLNYHDGIEMVDQILDATEGYGVDYYLAVTNTQDAESFTDALRFGGAVCLLSGVLIPNSNVLFRRQLSVHYVFLNGLHGHPLTRPQLRYIGDQVAKLYQSGAFRLDVEVLPFAEAAKALDRSATGNVNHKKLIVQVASP”, for which the “soluble on expression in E. coli” value was “not soluble”.

“MLLPRCCWGRWLMGRRPRCSCQAPAGFDGKDGRGSRVREMPPWRVLFLGTDHFARETLRALHAARDGKEEKLIEKLEVVTVPSLSPKGLPVKQYAIQSQLPVYEWPDVGSGEYDVGVVASFGRLLSEALILKFPYGILNVHPSCLPRWRGPAPIIHTVLHGDTVTGVTIMQIRPKRFDIGPILQQETIPVPPKSTSKELEAVLSKLGANMLISVLKNLPESLNNGRPQPAEGVTYAPKVSAGTSCVKWEEQTSEQVLRLHLAIGDIVPLQTLWMENTVKLLDLVEVNNSILADPKLTGQTVTPGFVVYHRPSQMLLVRCKDGWIGVRSVMLKKTLTATDFYNGYLHAWYQKNSHAHPSQCRFQTLRLPTKMQQKTKLLLCNSALSS”: the “soluble on expression in E. coli” value is recorded as “soluble”.

On to “MLSIISKYLLIASYICSYLEPRYDASIFSRKTRIIQGRAAYGRRKKKEVNPRYLQPSLFAIERLLAIFQAIFPIQGKAESGSLSALREESLMKANIEVFQNLSELHTLKLIATTMNKNIDYLSPKVRWKVNVPWEIIKEISESVHFNISDYFSD”, for which the “soluble on expression in E. coli” value was “not soluble”.

For “QQCGQTAPLINERLSYMKDVAGYKAENHLPIEDRIQEEKVINSAMAQAESLGLNGESIKPLMVAQINAAKAIQYRYRADWLSQPEPGWQPKPLDDVRANIGELSTKILEQIAEELKTCKPAEMGDKAHFINTIRQHNLTSADVEAIFSTFNQVKLK”, the “soluble on expression in E. coli” value is recorded as “soluble”.

As for “MDLYAVWGNPIAQSKSPLIQNKLAAQTHQTMEYIAKLGDLDAFEQQLLAFFEEGAKGCNITSPFKERAYQLADEYSQRAKLAEACNTLKKLDDGKLYADNTDGIGLVTDLQRLNWLRPNQHVLILGAGGATKGVLLPLLQAQQNIVLANRTFSKTKELAERFQPYGNIQAVSMDSIPLQTYDLVINATSAGLSGGTASVDAEILKLGSAFYDMQYAKGTDTPFIALCKSLGLTNVSDGFGMLVAQAAHSFHLWRGVMPDFVSVYEQLKKAMLLEHHHHHH”, the “soluble on expression in E. coli” value is “soluble”.

As to “MQMNHPIYIASDHTGLELKSLVIKHLEQQKLQVIDLGPTELDPLDDYPDYAFLLAQTMQANPNSLGILICGTGVGVCMAANKAKGILAALVVDSKTAALARQHDDANVLCLSSRFVVPEENIKIVDEFLQAQFEGGRHSKRVGKIIAYEREK”, the “soluble on expression in E. coli” value is given as “soluble”.

Take “MQQSYNPQNSLTATTSYSEQEIVCICESLFNEGLQTGRTEQLANFIYNLPQCYQVMESVLKAQALVYFTTQNWKMLYKLLECSKFSPHNHTVLQNLWLDAHYKEAAKTKDRELGAVCKYRIRKKNPFPNTIWDGEETNYCFKSKSRNVLRDAYKKCQYPSVEDKRRLAQQTELSIIQVSNWFKNKRQRERAAGQLDRSSARSNDSDDGSSGCESKPPMNIDSPAPPPLPTSFDLQPYYPSPYTFAPHCDFSYIQNL”: the “soluble on expression in E. coli” value is reported as “not soluble”.

In the case of “FNWDRAMYSLITYFLAYKVIDIVIQGVDESKSAFIISRYYEEIGAEIMEQLGKGVTYLDATGGYSGDVRKVVFVIVSRFEEVKVKAILDEIDPDAFLAVGGSMSEVRGGKLMNTKTPHL”, the “soluble on expression in E. coli” value is listed as “not soluble”.

For the sequence “YEGGWTQDKQWEREMNIAQEKYGPIFAKYAAMPIEEVAKDEHAMKMGSRMFATYCSICHGSDAKGALGFPNLADNEWRWGGDPQSIETTILGGRHAIMAAWGDILGEDGVKNVAAYVRTELAGLKLPEGTKADVEAGKQIFSVNCVACHGPEGKGTALVGAPNLTNPGAFIYGSSYAQLQQTIRHGRQGQMPAQEPYLGKEKVHILAAYI”, the “soluble on expression in E. coli” value is “not soluble”.

Consider “MGSDKIHHHHHHMNYTFELKELQATHIVYLHHQGDISLIPSSIRKLMQWAGPKGLINGPANKLISVYQHEGKVLSVDIGLTVPQEVEGESEISKGLLSGGLYAIGHFEIGTDEIPAAWSLMYTLTSKHQCKPCAGKSFEIYQSIPLDQHPQDKCMIDLCIPVQMIDLKLIEEKAISILTECDTAMLASVTEEGYPRPVPMGKIKADGISQIWFSTGTFSDKTIQFQLNPKAGVCFMKGGDSIVLTGKVEIVSDMEIKKALWSDWMFAHFPGGVIDPSYCILKFTSEEATYWIDNEFVKASI”, for which the “soluble on expression in E. coli” value is reported as “not soluble”.

For the sequence “MDDRLFRNAMGKFATGVTVITTELNGAVHGMTANAFMSVSLNPKLVLVSIGEKAKMLEKIQQSKKYAVNILSQDQKVLSMNFAGQLEKPVDVQFEELGGLPVIKDALAQISCQVVNEVQAGDHTLFIGEVTDIKITEQDPLLFFSGKYHQLAQNEKVETSS”, the “soluble on expression in E. coli” value was “soluble”.

With “MGEGTRGEAFKKIREGYKVHIFDESYVSYINKGKGWMKVGGGIKVNPKRKRFAVVGGITISKEGITFSYSTYKKPSLNSKDIILYLRKVIKDEKTVIVMDNARIHGNEVREFLEENGVEFVYLPPYSPDKSPAEGPWAVLKKRLYSKIYTDFETLMWDATRFLRSISKRVNDLTYSVKRCGEPLDVNTE”, the “soluble on expression in E. coli” value is recorded as “soluble”.

Consider “MRALLFTSVVLLALAFVEAKKQTITVKGTTICNKKRIQAEVTLWEKDTLDPDDKLASMQSNKEGEFSLTGSDDEITSISPYLIITHNCNVKKAGCKRVSEYLIPKEKIGGTYDMTYVTLDILSAKDKEKC”, for which the “soluble on expression in E. coli” value is reported as “not soluble”.

“MGSDKIHHHHHHMADISIEQSMQLFELQPGKSLDLQINNPVSLRLKLPLIGYELGKYIILKYPKSANTSEYKDVLIEGNVLIVRYLMEGNKGECFAFRSSIKNITQYPEKFIFIEYPNKIENRQLRLQQRTSIHLPAIIMLESSGDNKKTQINGIIGDISAKGCGFTFKTKSTSTKVNKRDIFVCLRSPIDGEVQIPARVCNSRNDNGTVNVGIQFIDNEKLVPKLLSELFIENTMS”: the “soluble on expression in E. coli” value is given as “not soluble”.

“MKYKIFASTTPQTEPVLQKLKQVLKGCEAVEKGFDYLFVLGGDGFFVSTVANYNCHNCRVVGINTGHLGFYTSFNEKDLDDNFLQKLQQCHFQRISLLEVSVNGQQHLVLNELAVYTNTAYPINIFIDGEAWEFYRGSGLLIGPRTGSTALAKSAKGAVIFPGIDVLQIIEMNPLLHPNQVTIQSPIILPKETQVEFVVKKAFNPQQFPTFYCDGRKLELPNADTTLALKLVQSTPMFNISLKTQDFINKLKSTFIKQSLEHHHHHH”: the “soluble on expression in E. coli” value was “not soluble”.

Regarding “MVHDTFMKMPEVRRRRQPTHVLVAGGNQGLGNMTAFLRAARTSTLFRYSVLCGANKQLYHEIASWQLPHIRPLPYINSPEEMNQLYDEADAVITKPGGVTISELLHKRIPIFTIDCLPGQERINWQYLRRNGLIYHLAEPGNGERKMIRLLTDDVEKNRFFRRVSDYFAGVEKTGLEHHHHHH”, the “soluble on expression in E. coli” value was “not soluble”.

Take “MGSDKIHHHHHHMSVHSEVLHALLKDPFIQKLIDAEPVFWANSGKKEGPLPRADEWATEIAEAEKRMQRFAPYIAEVFPETKGAKGIIESPLFEVQHMKGKLEAAYQQPFPGRWLLKCDHELPISGSIKARGGIYEVLKYAENLALQEGMLQETDDYRILQEERFTGFFSRYSIAVGSTGNLGLSIGIIGAALGFRVTVHMSADAKQWKKDLLRQKGVTVMEYETDYSEAVNEGRRQAEQDPFCYFIDDEHSRQLFLGYAVAASRLKTQLDCMNIKPSLETPLFVYLPCGVGGGPGGVAFGLKLLYGDDVHVFFAEPTHSPCMLLGLYSGLHEKISVQDIGLDNQTAADGLAVGRPSGFVGKLIEPLLSGCYTVEDNTLYTLLHMLAVSEDKYLEPSALAGMFGPVQLFSTEEGRRYAQKYKMEHAVHVVWGTGGSMVPKDEMAAYNRIGADLLKKRNGK”: the “soluble on expression in E. coli” value is recorded as “not soluble”.

As for “MATSRMVQARVPEEIQNVASQVIQASGLTVSDVVRVLMTRIAQDKAIPSVLFQPNAETIAAFAEVDEGNLKKFHSVDELFDDLYADD”, the “soluble on expression in E. coli” value is “not soluble”.

For the sequence “CGVFGIWGHEEAPQITYYGLHSLQHRGQEGAGIVATDGEKLTAHKGQGLITEVFQNGELSKVKGKGAIGHVRYATAGGGGYENVQPLLFRSQNNGSLALAHNGNLVNATQLKQQLENQGSIFQTSSDTEVLAHLIKRSGHFTLKDQIKNSLSMLKGAYAFLIMTETEMIVALDPNGLRPLSIGMMGDAYVVASETCAFDVVGATYLREVEPGEMLIINDEGMKSERFSMNINRSICSMEYIYFSRPDSNIDGINVHSARKNLGKMLAQESAVEADVVTGVPDSSISAAIGYAEATGIPYELGLIKNRYVGRTFIQPSQALREQGVRMKLSAVRGVVEGKRVVMVDDSIVRGTTSRRIVTMLREAGATEVHVKISSPPIAHPCFYGIDTSTHEELIASSHSVEEIRQEIGADTLSFLSVEGLLKGIGRKYDDSNCGQCLACFTGKYPTEIYQDTVLPHVK”, the “soluble on expression in E. coli” value is “soluble”.

For “MSSLCLQRLQEERKKWRKDHPFGFYAKPVKKADGSMDLQKWEAGIPGKEGTNWAGGVYPITVEYPNEYPSKPPKVKFPAGFYHPNVYPSGTICLSILNEDQDWRPAITLKQIVLGVQDLLDSPNPNSPAQEPAWRSFSRNKAEYDKKVLLQAKQYSK”, the “soluble on expression in E. coli” value is “soluble”.

As for “MYQNILVPLDGSDNAYMALKHAVKLAQTFKSKLFLVNVIDITRLNAYSPAAYGGTLYTNLLKVAKDNSQDILDRGQQMASAAQVESLPIQVNSSPKASIATDIPKKYAIDLIVMGKSGTNAVSRILLGSTTAYVVQKAEVNVTVIN”, the “soluble on expression in E. coli” value is on record as “not soluble”.

As for “MSKPMKILLANPRGFCAGVDRAISIVERALELYQPPIYVRHEVVHNRFVVEGLKQRGARFVEELNEVPDDNIVIFSAHGVSQAVRQEAKERSLTVFDATCPLVTKVHMEVARASRKHMEVVLIGHAGHPEVEGTMGQYASDTGGMYLVEKPEDVVSLQAKVKDPSNLHYVSQTTLSVDETADVIDELRRVFPKIQGPRKDDICYATQNRQDAVRILAEQVDVMVVVGSKNSSNSTRLKELAEKLGTPGYLIDCPQDIDPEWFVDAQLIGVTAGASAPEELVNQILDRIKELGATSVEEVLGREENMFFEVPKELQIKQVD”, the “soluble on expression in E. coli” value is “soluble”.

The record behind these values is the DeepSol protein solubility set.
